The text below walks through data of US20180147257A1.

Some targets named below: CD163 on YT-1 cells (UniProt Q86VB7); HLA-E on YT-1 cells (UniProt P13747); ROR2 on YT-1 cells (UniProt Q01974); FLT1 on YT-1 cells (UniProt P17948); LTβR on YT-1 cells (UniProt P36941).
What all share (experiment): cell-based or functional assay

ROR2 on YT-1 cells, sequence (Q01974 34-943 limits assumed): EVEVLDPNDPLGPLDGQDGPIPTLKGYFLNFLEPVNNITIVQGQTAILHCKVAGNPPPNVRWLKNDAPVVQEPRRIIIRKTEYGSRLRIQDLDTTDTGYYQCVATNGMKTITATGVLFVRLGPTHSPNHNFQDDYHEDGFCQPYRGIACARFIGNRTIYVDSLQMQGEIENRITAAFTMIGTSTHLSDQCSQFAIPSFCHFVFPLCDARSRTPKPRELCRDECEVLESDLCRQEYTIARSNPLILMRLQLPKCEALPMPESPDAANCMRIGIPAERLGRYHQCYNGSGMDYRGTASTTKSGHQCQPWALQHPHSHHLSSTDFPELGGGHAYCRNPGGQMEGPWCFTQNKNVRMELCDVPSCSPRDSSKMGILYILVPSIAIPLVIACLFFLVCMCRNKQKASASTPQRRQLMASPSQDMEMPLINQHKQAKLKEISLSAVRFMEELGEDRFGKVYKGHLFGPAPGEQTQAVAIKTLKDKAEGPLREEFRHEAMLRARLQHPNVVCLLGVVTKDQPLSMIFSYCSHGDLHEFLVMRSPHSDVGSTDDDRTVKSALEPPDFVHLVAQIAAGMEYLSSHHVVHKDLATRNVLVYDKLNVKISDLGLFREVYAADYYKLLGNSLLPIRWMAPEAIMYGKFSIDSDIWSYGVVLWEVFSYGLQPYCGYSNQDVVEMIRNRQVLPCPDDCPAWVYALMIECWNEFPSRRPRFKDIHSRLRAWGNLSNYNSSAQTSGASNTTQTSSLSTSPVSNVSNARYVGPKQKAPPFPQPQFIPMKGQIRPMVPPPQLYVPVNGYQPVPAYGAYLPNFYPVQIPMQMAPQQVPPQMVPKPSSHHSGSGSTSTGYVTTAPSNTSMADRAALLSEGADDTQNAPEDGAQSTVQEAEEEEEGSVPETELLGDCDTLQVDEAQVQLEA
FLT1 on YT-1 cells, sequence (P17948 27-1338 limits assumed): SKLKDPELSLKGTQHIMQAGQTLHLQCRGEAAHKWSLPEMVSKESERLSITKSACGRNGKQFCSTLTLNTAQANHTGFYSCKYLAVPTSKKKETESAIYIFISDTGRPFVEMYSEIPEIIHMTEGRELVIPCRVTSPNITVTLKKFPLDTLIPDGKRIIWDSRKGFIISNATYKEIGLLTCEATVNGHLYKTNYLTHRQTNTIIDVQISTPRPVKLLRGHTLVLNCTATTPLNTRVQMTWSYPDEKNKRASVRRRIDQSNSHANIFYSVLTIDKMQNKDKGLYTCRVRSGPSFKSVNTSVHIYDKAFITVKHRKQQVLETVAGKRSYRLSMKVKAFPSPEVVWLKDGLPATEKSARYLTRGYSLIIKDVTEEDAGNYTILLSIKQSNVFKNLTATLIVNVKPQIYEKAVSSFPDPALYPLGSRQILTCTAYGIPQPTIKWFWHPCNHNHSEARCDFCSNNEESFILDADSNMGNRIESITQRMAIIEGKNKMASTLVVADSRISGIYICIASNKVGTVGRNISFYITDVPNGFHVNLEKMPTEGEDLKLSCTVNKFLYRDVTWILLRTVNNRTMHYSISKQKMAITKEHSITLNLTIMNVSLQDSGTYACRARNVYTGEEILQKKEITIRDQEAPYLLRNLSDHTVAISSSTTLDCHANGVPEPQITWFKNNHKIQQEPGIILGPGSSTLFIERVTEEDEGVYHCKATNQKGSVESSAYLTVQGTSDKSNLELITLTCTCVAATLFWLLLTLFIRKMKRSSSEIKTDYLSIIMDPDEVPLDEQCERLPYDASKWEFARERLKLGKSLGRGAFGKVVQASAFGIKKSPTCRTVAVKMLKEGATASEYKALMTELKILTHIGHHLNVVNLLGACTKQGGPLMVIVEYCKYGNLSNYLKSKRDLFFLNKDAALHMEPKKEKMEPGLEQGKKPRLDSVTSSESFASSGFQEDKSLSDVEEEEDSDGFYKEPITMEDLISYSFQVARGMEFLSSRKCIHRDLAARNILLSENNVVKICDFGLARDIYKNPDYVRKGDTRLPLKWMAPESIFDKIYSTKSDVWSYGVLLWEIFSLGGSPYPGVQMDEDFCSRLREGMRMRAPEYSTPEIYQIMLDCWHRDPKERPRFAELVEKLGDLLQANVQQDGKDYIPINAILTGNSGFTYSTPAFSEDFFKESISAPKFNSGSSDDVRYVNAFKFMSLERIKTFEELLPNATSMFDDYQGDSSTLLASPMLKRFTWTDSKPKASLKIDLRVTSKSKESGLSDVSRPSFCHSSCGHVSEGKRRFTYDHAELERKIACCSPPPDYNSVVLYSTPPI
HLA-E on YT-1 cells, sequence (P13747 22-358 limits assumed): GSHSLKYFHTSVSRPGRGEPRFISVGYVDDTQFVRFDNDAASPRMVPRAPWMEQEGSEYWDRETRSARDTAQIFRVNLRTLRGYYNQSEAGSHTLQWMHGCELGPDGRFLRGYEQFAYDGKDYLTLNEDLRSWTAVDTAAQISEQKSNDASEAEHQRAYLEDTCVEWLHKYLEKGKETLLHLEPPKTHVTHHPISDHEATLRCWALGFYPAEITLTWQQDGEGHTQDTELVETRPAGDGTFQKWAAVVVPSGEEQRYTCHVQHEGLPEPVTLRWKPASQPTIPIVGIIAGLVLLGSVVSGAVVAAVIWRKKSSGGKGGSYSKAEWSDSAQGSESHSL
CD163 on YT-1 cells, sequence (Q86VB7 42-1156): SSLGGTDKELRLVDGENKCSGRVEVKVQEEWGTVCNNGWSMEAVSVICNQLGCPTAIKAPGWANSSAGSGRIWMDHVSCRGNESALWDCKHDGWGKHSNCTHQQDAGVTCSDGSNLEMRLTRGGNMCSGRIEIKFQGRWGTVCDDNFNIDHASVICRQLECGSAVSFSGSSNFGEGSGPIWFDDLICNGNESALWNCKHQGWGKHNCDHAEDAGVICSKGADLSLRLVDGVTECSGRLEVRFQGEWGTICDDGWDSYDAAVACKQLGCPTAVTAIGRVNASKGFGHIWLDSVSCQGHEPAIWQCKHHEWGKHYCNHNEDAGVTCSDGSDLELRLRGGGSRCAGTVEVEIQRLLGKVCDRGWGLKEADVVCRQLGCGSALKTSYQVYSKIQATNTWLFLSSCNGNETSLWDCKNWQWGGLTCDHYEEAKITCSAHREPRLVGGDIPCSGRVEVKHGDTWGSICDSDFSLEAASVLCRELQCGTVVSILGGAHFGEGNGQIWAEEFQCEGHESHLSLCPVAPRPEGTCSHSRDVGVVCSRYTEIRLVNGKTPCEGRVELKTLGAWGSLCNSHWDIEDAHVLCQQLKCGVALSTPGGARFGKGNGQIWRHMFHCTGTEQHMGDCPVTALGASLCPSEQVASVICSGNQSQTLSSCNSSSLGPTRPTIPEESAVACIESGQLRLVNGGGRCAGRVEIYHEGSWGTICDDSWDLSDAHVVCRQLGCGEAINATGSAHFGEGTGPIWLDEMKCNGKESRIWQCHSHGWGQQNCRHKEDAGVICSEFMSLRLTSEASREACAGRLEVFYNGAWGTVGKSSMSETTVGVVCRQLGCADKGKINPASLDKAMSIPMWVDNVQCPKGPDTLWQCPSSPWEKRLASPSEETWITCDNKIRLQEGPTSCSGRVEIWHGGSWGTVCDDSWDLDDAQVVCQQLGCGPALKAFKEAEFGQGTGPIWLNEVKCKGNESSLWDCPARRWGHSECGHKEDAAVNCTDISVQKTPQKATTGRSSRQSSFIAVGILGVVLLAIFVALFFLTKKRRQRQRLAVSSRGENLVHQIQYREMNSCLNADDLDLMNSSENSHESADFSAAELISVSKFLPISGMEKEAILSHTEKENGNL
LTβR on YT-1 cells, sequence (P36941 31-435 limits assumed): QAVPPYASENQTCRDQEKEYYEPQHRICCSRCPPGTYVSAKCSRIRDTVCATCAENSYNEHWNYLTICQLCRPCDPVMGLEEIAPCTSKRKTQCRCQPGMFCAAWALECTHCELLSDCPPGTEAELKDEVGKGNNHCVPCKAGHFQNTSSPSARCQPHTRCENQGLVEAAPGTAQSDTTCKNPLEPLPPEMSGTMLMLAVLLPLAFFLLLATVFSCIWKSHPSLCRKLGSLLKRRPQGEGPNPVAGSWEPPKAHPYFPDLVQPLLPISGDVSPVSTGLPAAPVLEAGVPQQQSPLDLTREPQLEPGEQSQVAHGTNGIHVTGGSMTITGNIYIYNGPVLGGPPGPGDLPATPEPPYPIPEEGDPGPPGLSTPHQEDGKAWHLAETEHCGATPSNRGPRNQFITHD

Turning to “fluorescently coupled BTN3A ectodomain fused to the Fc fragment of human IgG4 (Fc fusion)”, the Log 10 fold change of sgRNAs in YT-1 GeCKO library cells sorted for non-binding to BTN3A-IgG4 (Log 10 fold change) with CD163 on YT-1 cells was 3.56; with HLA-E on YT-1 cells it was 3.66; in the assay with ROR2 on YT-1 cells it was 3.54; with FLT1 on YT-1 cells it was 3.7; in the assay with LTβR on YT-1 cells it was 3.69.
